The results in this text go back to publication PMC9482650, “Quantitative fragmentomics allow affinity mapping of interactomes” (Nature Communications, 2022).

Chain of PTPN13_2, Q12923 (Q12923 1363-1462): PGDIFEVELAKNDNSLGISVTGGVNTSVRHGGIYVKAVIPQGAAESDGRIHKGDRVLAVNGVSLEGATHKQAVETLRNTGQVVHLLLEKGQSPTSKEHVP

One assay addresses Q9ULJ8. In words: holdup assay. Also noted: key: below the threshold = too weak to quantify, mostly under pKd 3.1 to 4. To be noted: plain residues with an end cap or a label only (N-terminal biotin on a linker: ttds).
Broadly, the pKd is the negative decadic logarithm of the Kd, by convention in mol/L. For the molecule SSIDLWETAL [SLC15A5, A6NIM6], the negative logarithm of the Kd (pKd) result is reported as “below the threshold”.
The same measure, in the same setting: as for PSRDRKETSI [RALBP1, Q15311], the entry is “below the threshold”; as for SHSSKGETAV [FZD7, O75084], “below the threshold”.

The next assay concerns the target Q9UMS6. The experiment in a line: holdup assay. Set-up: key: below the threshold = too weak to quantify, mostly under pKd 3.1 to 4. To be noted: plain residues with an end cap or a label only (N-terminal biotin on a linker: ttds).
On to SSIDLWETAL [SLC15A5, A6NIM6], for which the pKd entry is “below the threshold”.
On the same count and under the same terms, as for PSRDRKETSI [RALBP1, Q15311], the entry is “below the threshold”; as for SHSSKGETAV [FZD7, O75084], “below the threshold”.

For another assay, the target named is Q9P227. In words: holdup assay. Set-up: key: below the threshold = too weak to quantify, mostly under pKd 3.1 to 4. To be noted: plain residues with an end cap or a label only (N-terminal biotin on a linker: ttds).
For the molecule SSIDLWETAL [SLC15A5, A6NIM6], the pKd result is reported as “below the threshold”.
Turning to PSRDRKETSI [RALBP1, Q15311], the pKd result was “below the threshold”.
On the same count and under the same terms, as for SHSSKGETAV [FZD7, O75084], the entry is “below the threshold”.

The target in the next assay is LIMK1, P53667. In words: holdup assay. Also noted: key: below the threshold = too weak to quantify, mostly under pKd 3.1 to 4. To be noted: plain residues with an end cap or a label only (N-terminal biotin on a linker: ttds).
Chain of LIMK1, P53667 (P53667 155-268): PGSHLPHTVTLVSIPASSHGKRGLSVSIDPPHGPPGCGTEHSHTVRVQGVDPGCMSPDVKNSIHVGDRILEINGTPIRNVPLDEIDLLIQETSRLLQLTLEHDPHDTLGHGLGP
On to SSIDLWETAL [SLC15A5, A6NIM6], for which the pKd entry was “below the threshold”.
For the molecule PSRDRKETSI [RALBP1, Q15311], the pKd amounted to 4.16.
Take SHSSKGETAV [FZD7, O75084]: the pKd entry is listed as “below the threshold”.

The target of a further assay is Q96HC4. In words: holdup assay. Also noted: key: below the threshold = too weak to quantify, mostly under pKd 3.1 to 4. To be noted: plain residues with an end cap or a label only (N-terminal biotin on a linker: ttds).
In the case of SSIDLWETAL [SLC15A5, A6NIM6], the negative logarithm of the Kd (pKd) entry is “below the threshold”.
Turning to PSRDRKETSI [RALBP1, Q15311], the negative-log Kd (pKd) entry is recorded as “below the threshold”.
Still for that read-out and setting: next, SHSSKGETAV [FZD7, O75084]: “below the threshold”.

The target of a further assay is Q12923. The experiment in a line: holdup assay. Also noted: key: below the threshold = too weak to quantify, mostly under pKd 3.1 to 4. To be noted: plain residues with an end cap or a label only (N-terminal biotin on a linker: ttds).
For the molecule SSIDLWETAL [SLC15A5, A6NIM6], the negative logarithm of the Kd (pKd) entry is “below the threshold”.
Still for that read-out and setting: as for PSRDRKETSI [RALBP1, Q15311], the entry is “below the threshold”; as for SHSSKGETAV [FZD7, O75084], “below the threshold”.

A further assay has as its target Q96JY6. The experiment in a line: holdup assay. Set-up: key: below the threshold = too weak to quantify, mostly under pKd 3.1 to 4. To be noted: plain residues with an end cap or a label only (N-terminal biotin on a linker: ttds).
In the case of SSIDLWETAL [SLC15A5, A6NIM6], the pKd result is on record as “below the threshold”.
For the molecule PSRDRKETSI [RALBP1, Q15311], the pKd entry is on record as “below the threshold”.
On the same count and under the same terms, next, SHSSKGETAV [FZD7, O75084]: “below the threshold”.

The next assay addresses O43166. In words: holdup assay. Set-up: key: below the threshold = too weak to quantify, mostly under pKd 3.1 to 4. To be noted: plain residues with an end cap or a label only (N-terminal biotin on a linker: ttds).
SSIDLWETAL [SLC15A5, A6NIM6]: the pKd entry is reported as “below the threshold”.
Consider PSRDRKETSI [RALBP1, Q15311], for which the pKd entry is reported as “below the threshold”.
On the same count and under the same terms, as for SHSSKGETAV [FZD7, O75084], the entry is “below the threshold”.

A further assay addresses Q8TEW0. In words: holdup assay. Set-up: key: below the threshold = too weak to quantify, mostly under pKd 3.1 to 4. To be noted: plain residues with an end cap or a label only (N-terminal biotin on a linker: ttds).
Take SSIDLWETAL [SLC15A5, A6NIM6]: the pKd result is reported as “below the threshold”.
Still for that read-out and setting: next, PSRDRKETSI [RALBP1, Q15311]: “below the threshold”.
The same measure, in the same setting: next, SHSSKGETAV [FZD7, O75084]: “below the threshold”.

The next assay concerns the target PTPN13_2, Q12923. The experiment in a line: holdup assay. To be noted: plain residues with an end cap or a label only (N-terminal biotin on a linker: ttds). Set-up: key: below the threshold = too weak to quantify, mostly under pKd 3.1 to 4.
Take PSRDRKETSI [RALBP1, Q15311]: the pKd stood at 3.79.
Still for that read-out and setting: next, SHSSKGETAV [FZD7, O75084]: “below the threshold”.

Another assay addresses Q8TB45. In words: holdup assay. Set-up: key: below the threshold = too weak to quantify, mostly under pKd 3.1 to 4. To be noted: plain residues with an end cap or a label only (N-terminal biotin on a linker: ttds).
For SSIDLWETAL [SLC15A5, A6NIM6], the pKd entry is on record as “below the threshold”.
Same read-out and setting: next, PSRDRKETSI [RALBP1, Q15311]: “below the threshold”; SHSSKGETAV [FZD7, O75084]: “below the threshold”.

The target of the next assay is Q92614. In words: holdup assay. Also noted: key: below the threshold = too weak to quantify, mostly under pKd 3.1 to 4. To be noted: plain residues with an end cap or a label only (N-terminal biotin on a linker: ttds).
Regarding SSIDLWETAL [SLC15A5, A6NIM6], the pKd entry is recorded as “below the threshold”.
Same read-out and setting: next, PSRDRKETSI [RALBP1, Q15311]: “below the threshold”; SHSSKGETAV [FZD7, O75084]: “below the threshold”.

For the next assay, the target named is O15021. In words: holdup assay. Set-up: key: below the threshold = too weak to quantify, mostly under pKd 3.1 to 4. To be noted: plain residues with an end cap or a label only (N-terminal biotin on a linker: ttds).
For the molecule SSIDLWETAL [SLC15A5, A6NIM6], the pKd result is listed as “below the threshold”.
With PSRDRKETSI [RALBP1, Q15311], the pKd result is “below the threshold”.
Still for that read-out and setting: next, SHSSKGETAV [FZD7, O75084]: “below the threshold”.

The target of the next assay is Q8TDM6. The experiment in a line: holdup assay. Set-up: key: below the threshold = too weak to quantify, mostly under pKd 3.1 to 4. To be noted: plain residues with an end cap or a label only (N-terminal biotin on a linker: ttds).
Turning to SSIDLWETAL [SLC15A5, A6NIM6], the negative logarithm of the Kd (pKd) result is recorded as “below the threshold”.
Take PSRDRKETSI [RALBP1, Q15311]: the pKd entry was “below the threshold”.
SHSSKGETAV [FZD7, O75084]: the pKd result is recorded as “below the threshold”.

In the next assay the target is Q6ZWJ1. The experiment in a line: holdup assay. Also noted: key: below the threshold = too weak to quantify, mostly under pKd 3.1 to 4. To be noted: plain residues with an end cap or a label only (N-terminal biotin on a linker: ttds).
Consider SSIDLWETAL [SLC15A5, A6NIM6], for which the pKd entry was “below the threshold”.
The same measure, in the same setting: next, PSRDRKETSI [RALBP1, Q15311]: “below the threshold”; SHSSKGETAV [FZD7, O75084]: “below the threshold”.

The target in another assay is Q9UDY2. The experiment in a line: holdup assay. Set-up: key: below the threshold = too weak to quantify, mostly under pKd 3.1 to 4. To be noted: plain residues with an end cap or a label only (N-terminal biotin on a linker: ttds).
Regarding SSIDLWETAL [SLC15A5, A6NIM6], the pKd result was “below the threshold”.
On the same count and under the same terms, next, PSRDRKETSI [RALBP1, Q15311]: “below the threshold”; SHSSKGETAV [FZD7, O75084]: “below the threshold”.

A further assay concerns the target Q9H190. The experiment in a line: holdup assay. Also noted: key: below the threshold = too weak to quantify, mostly under pKd 3.1 to 4. To be noted: plain residues with an end cap or a label only (N-terminal biotin on a linker: ttds).
Take SSIDLWETAL [SLC15A5, A6NIM6]: the pKd result is given as “below the threshold”.
Same read-out and setting: next, PSRDRKETSI [RALBP1, Q15311]: “below the threshold”.
Still for that read-out and setting: next, SHSSKGETAV [FZD7, O75084]: “below the threshold”.

The target in a further assay is Q13368. The experiment in a line: holdup assay. To be noted: plain residues with an end cap or a label only (N-terminal biotin on a linker: ttds). Also noted: key: below the threshold = too weak to quantify, mostly under pKd 3.1 to 4.
As for SSIDLWETAL [SLC15A5, A6NIM6], the pKd result is “below the threshold”.
The same measure, in the same setting: as for PSRDRKETSI [RALBP1, Q15311], the entry is “below the threshold”.
The same measure, in the same setting: next, SHSSKGETAV [FZD7, O75084]: “below the threshold”.

Another assay concerns the target Q96JB8. In words: holdup assay. Also noted: key: below the threshold = too weak to quantify, mostly under pKd 3.1 to 4. To be noted: plain residues with an end cap or a label only (N-terminal biotin on a linker: ttds).
For SSIDLWETAL [SLC15A5, A6NIM6], the pKd result is recorded as “below the threshold”.
The same measure, in the same setting: as for PSRDRKETSI [RALBP1, Q15311], the entry is “below the threshold”; as for SHSSKGETAV [FZD7, O75084], “below the threshold”.

The target in a further assay is Q96FS4. In words: holdup assay. To be noted: plain residues with an end cap or a label only (N-terminal biotin on a linker: ttds). Set-up: key: below the threshold = too weak to quantify, mostly under pKd 3.1 to 4.
For SSIDLWETAL [SLC15A5, A6NIM6], the pKd entry is recorded as “below the threshold”.
Still for that read-out and setting: next, PSRDRKETSI [RALBP1, Q15311]: “below the threshold”; SHSSKGETAV [FZD7, O75084]: “below the threshold”.

The target in the next assay is O00560. In words: holdup assay. Also noted: key: below the threshold = too weak to quantify, mostly under pKd 3.1 to 4. To be noted: plain residues with an end cap or a label only (N-terminal biotin on a linker: ttds).
With SSIDLWETAL [SLC15A5, A6NIM6], the pKd entry is “below the threshold”.
On the same count and under the same terms, next, PSRDRKETSI [RALBP1, Q15311]: “below the threshold”.
The same measure, in the same setting: as for SHSSKGETAV [FZD7, O75084], the entry is “below the threshold”.

The target in another assay is O75970. The experiment in a line: holdup assay. Set-up: key: below the threshold = too weak to quantify, mostly under pKd 3.1 to 4. To be noted: plain residues with an end cap or a label only (N-terminal biotin on a linker: ttds).
Regarding SSIDLWETAL [SLC15A5, A6NIM6], the pKd entry is on record as “below the threshold”.
For PSRDRKETSI [RALBP1, Q15311], the pKd entry is “below the threshold”.
In the case of SHSSKGETAV [FZD7, O75084], the pKd entry is “below the threshold”.

A further assay deals with Q9NR12. The experiment in a line: holdup assay. To be noted: plain residues with an end cap or a label only (N-terminal biotin on a linker: ttds). Also noted: key: below the threshold = too weak to quantify, mostly under pKd 3.1 to 4.
Consider SSIDLWETAL [SLC15A5, A6NIM6], for which the pKd result is “below the threshold”.
Consider PSRDRKETSI [RALBP1, Q15311], for which the pKd entry was “below the threshold”.
On to SHSSKGETAV [FZD7, O75084], for which the pKd entry was “below the threshold”.
